Measurements: the DeepSol protein solubility set

Assay: soluble on expression in E. coli; label from the status in PepcDB or PDB records

Row | Sequence | soluble on expression in E. coli
1 | MTSVDCTAYGPELRALAARLPRTPRADLYAFLDAAHTAAASLPGALATALDTFNAEGSEDGHLLLRGLPVEADADLPTTPSSTPAPEDRSLLTMEAMLGLVGRRLGLHTGYRELRSGTVYHDVYPSPGAHHLSSETSETLLEFHTEMAYHRLQPNYVMLACSRADHERTAATLVASVRKALPLLDERTRARLLDRRMPCCVDVAFRGGVDDPGAIAQVKPLYGDADDPFLGYDRELLAPEDPADKEAVAALSKALDEVTEAVYLEPGDLLIVDNFRTTHARTPFSPRWDGKDRWLHRVYIRTDRNGQLSGGERAGDVVAFTPRG | soluble
2 | PGSEFELGNKGNNILNSNESRLNVNENNILREKFENYARIVFQFNNSRQANGNFDIANEFISILSSANGTRNAQLLESWKILESMKSKDINIVEVGKQYLEQQFLQYTDNLYKKNMNEGLATNVNKIKSFIDTKLKKADKSWKISNLTVINGVPIWALIFYLLRAGLIKEALQVLVENKANIKKVEQSFLTYFKAYASSKDHGLPVEYSTKLHTEYNQHIKSSLDGDPYRLAVYKLIGRCDLSRKNIPAVTLSIEDWLWMHLMLIKEKDAENDPVYERYSLEDFQNIIISYGPSRFSNYYLQTLLLSGLYGLAIDYTYTFSEMDAVHLAIGLASLKLFKIDSSTRLTKKPKRDIRFANILANYTKSFRYSDPRVAVEYLVLITLNEGPTDVELCHEALRELVLETKEFTVLLGKIGRDGARIPGVIEERQPLLHVRDEKEFLHTITEQAARRADEDGRIYDSILLYQLAEEYDIVITLVNSLLSDTLSASDLDQPLVGPDDNSETNPVLLARRMASIYFDNAGISRQIHVKNKEICMLLLNISSIRELYFNKQWQETLSQMELLDLLPFSDELSARKKAQDFSNLDDNIVKNIPNLLIITLSCISNMIHILNESKYQSSTKGQQIDSLKNVARQCMIYAGMIQYRMPRETYSTLINIDVSL | soluble
3 | MGSDKIHHHHHHMTTFTAKFIDQEWEVPVESGRYHMIVGEFCPYAQRPQIARQLLGLDKHISISFVDDVPSDIGLIFSQPEQVTGAKSLRDIYHLTDPTYQGPYTIPILIDKTDNRIVCKESADLLRLFTTDFSDLHQEDAPVLFSQETASLIDNDIKDINKNFQSLMYKLAFLDKQADYDTYSKEFFTFLDQKEHLLGQRPFLLGDNLSEVDIHFFTPLVRWDIAGRDLLLLNQKALEDYPNIFSWAKTLYNDFNLKTLTNPQSIKNNYYLGKFGRAVRHHTIVPTGPNMAKWEK | not soluble
4 | MKPIIVKKGDIRRLLKESGEIDGNDGRISVAAHILYQFGDRIVFVKAYENEDIDLKIKNRKNDYRYIKVIASQNGEFHIMDLPIGDRRIGSETLYGLIMASETFGTRLRNEILNMISFEMKRRNSIWILVDKDSHAYYPFTTHSITEIILHDVEYRFERGLIDRNLEIRVPVQFIYNYWQRYLKAKNRTPGEVWASMILQ | not soluble
5 | MTQMNFTDRATRVAIIANGKYQSKRVASKLFAAFKHDPDFYLSKKDPDIVISIGGDGMLLSAFHMYEKQLDKVRFVGVHTGHLGFYTDYRDFEVDTLINNLKNDKGEQISYPILKVTITLEDGRVIRARALNESTIKRIEKTMVADVVINQVVFERFRGDGILVSTPTGSTAYNKSLGGAVLHPTIEALQLTEISSLNNRVYRTLGSSVIIPKKDAIEIVPKRVGVYTISIDNKTVHYKNVTKIEYSIDEKSINFVSTPSHTSFWERVNDAFIGEPEHLEHHHHHH | not soluble
6 | MGKRFSSFQAAQIRIARPTGQLDEIIRFYEEGLCLKRIGEFSQHNGYDGVMFGLPHADYHLEFTQYEGGSTAPVPHPDSLLVFYVPNAVELAAITSKLKHMGYQEVESENPYWSNGGVTIEDPDGWRIVFMNSKGISGK | soluble
7 | MHVALHTVRMYPRNTSMVAIPSRELSPRRDGFRELLETNYQKRDLVHLTAGSVVPLLKNSIWLVVRGMVKLGAVSVHGDELLLGLAGPNEPFGEPLSTVEAYEAVALSDCDLLCLSANEVEQAPQLALAMMDAIGARYRQAEYMLALLGLRRVEERVRGFLEMLAQDYGQPCDDGLRLNLRLTHQEMASALSTTRVTVTRVIGLLRDEGWLKIDAQRHLVIAHLPRR | not soluble
8 | MRVLITGATGGLGGAFARALKGHDLLLSGRRAGALAELAREVGARALPADLADELEAKALLEEAGPLDLLVHAVGKAGRASVREAGRDLVEEMLAAHLLTAAFVLKHARFQKGARAVFFGAYPRYVQVPGFAAYAAAKGALEAYLEAARKELLREGVHLVLVRLPAVATGLWAPLGGPPKGALSPEEAARKVLEGLFREPVPALLEV | soluble
